These results are taken from US20050203007A1 (REGENTS OF THE UNIVERSITY OF MICHIGAN, published 2005).

Experiment [1] concerns the target T1, secreted, soluble Kex2 (Saccharomyces cerevisiae, UniProt P13134 114-613, limits assumed).
T1 construct: Secreted, soluble construct; also called kexin
T1 sequence (looked up): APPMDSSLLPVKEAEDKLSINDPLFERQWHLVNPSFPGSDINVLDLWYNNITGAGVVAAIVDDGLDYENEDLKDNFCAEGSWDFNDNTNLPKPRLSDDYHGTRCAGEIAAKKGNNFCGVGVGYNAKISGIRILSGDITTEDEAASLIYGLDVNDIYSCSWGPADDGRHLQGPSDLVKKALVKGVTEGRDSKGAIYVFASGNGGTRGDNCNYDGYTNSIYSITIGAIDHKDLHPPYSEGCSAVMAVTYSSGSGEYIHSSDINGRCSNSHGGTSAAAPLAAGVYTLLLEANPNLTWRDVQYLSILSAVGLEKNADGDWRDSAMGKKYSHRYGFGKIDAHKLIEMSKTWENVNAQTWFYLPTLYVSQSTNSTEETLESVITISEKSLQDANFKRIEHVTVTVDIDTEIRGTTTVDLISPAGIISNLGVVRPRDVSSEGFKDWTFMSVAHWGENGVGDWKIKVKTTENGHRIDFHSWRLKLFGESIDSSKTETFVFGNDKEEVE
The experiment in a line: equilibrium enzyme inhibition, fluorogenic substrate.

In experiment [2] the target is T2, secreted, soluble furin (human, UniProt P09958 108-715, limits assumed).
T2 construct: Secreted, soluble construct; also called human furin
T2 sequence (P09958 108-715 limits assumed): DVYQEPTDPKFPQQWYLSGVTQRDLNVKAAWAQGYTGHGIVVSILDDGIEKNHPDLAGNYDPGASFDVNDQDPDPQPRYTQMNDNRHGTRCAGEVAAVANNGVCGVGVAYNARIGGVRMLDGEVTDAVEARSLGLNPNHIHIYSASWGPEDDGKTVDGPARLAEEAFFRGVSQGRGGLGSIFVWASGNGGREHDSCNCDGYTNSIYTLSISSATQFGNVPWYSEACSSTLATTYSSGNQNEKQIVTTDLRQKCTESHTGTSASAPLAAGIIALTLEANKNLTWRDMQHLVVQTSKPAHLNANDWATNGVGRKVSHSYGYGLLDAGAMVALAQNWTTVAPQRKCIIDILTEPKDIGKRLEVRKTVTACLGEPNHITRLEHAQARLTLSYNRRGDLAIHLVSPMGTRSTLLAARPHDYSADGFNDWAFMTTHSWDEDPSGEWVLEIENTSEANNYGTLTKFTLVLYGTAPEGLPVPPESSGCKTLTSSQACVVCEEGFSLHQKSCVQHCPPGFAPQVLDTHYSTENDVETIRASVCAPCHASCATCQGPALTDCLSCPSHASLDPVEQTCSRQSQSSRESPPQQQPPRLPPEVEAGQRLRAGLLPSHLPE
Described as above.

For experiment [3], the target named is T2, secreted, soluble furin. Put plainly: affinity resin, eglin immobilized on Reacti-Gel 6X. The procedure: Resins were synthesized by immobilizing purified M4R1-eglin and R4R1-eglin onto Reacti-Gel 6X (Pierce) using the manufacturer's protocol.
The resins were then used to test binding and elution of furin from these resins. […] Enzyme was eluted with 20 mM NaMES (pH 6.0) with approximately 90% yield. Furin binding capacity to the R4R1-eglin Resin was 10-fold higher relative to the M4R1-eglin Resin, but furin was not eluted by dropping pH. Instead, furin bound to the R4R1-eglin column was eluted with buffer containing 2 mM EDTA. 5 mM CaCl₂ was added to restore activity and 85% of the furin activity was recovered. (Unit definition: Release of 1 pmol of AMC/min in a reaction containing […] Boc-Arg-Val-Arg-Arg-MCA, 1 mM CaCl₂ and 20 mM NaMES (pH 7.0) at 37° C.

In a further experiment the target is trypsin. The experiment in a line: enzyme inhibition; temporary inhibitor of trypsin.
Sequence of trypsin (P00760 24-246): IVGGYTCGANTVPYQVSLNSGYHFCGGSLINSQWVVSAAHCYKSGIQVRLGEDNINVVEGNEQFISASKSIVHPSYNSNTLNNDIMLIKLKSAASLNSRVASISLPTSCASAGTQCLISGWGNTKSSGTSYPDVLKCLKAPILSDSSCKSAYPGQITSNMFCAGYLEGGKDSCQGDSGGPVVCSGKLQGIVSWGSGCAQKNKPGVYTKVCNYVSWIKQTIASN
The target of experiment [4] is T3, human PC7 (human, UniProt Q16549 142-667, limits assumed).
T3 sequence (looked up): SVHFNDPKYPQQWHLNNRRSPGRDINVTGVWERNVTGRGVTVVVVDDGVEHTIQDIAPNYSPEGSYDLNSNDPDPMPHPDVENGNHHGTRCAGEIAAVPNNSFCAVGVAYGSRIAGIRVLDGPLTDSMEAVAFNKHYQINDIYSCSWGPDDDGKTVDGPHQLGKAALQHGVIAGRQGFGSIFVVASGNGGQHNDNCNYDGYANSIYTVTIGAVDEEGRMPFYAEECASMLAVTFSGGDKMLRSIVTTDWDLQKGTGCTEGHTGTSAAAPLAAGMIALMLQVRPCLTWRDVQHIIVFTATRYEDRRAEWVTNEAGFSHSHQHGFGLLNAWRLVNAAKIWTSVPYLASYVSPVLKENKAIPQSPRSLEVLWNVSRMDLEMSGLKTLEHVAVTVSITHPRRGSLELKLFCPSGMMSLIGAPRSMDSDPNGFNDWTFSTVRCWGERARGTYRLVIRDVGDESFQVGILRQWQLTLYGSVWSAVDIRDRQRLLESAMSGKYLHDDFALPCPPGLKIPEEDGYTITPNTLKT
The experiment in a line: enzyme inhibition, purified variant.

Experiment [5] deals with T1, secreted, soluble Kex2. Put plainly: enzyme inhibition, purified variant.
For experiment [6], the target named is T2, secreted, soluble furin. Put plainly: enzyme inhibition, purified variant.
In experiment [7] the target is T3, human PC7. The experiment in a line: enzyme inhibition, purified variant; Kassoc.
In experiment [8] the target is T1, secreted, soluble Kex2. Put plainly: enzyme inhibition, purified variant; Kassoc.
Experiment [9] addresses T2, secreted, soluble furin. Put plainly: enzyme inhibition, purified variant; Kassoc.
Experiment [10] deals with T3, human PC7. The experiment in a line: cell-based or functional assay.
Experiment [11] deals with T1, secreted, soluble Kex2. The experiment in a line: cell-based or functional assay.
In experiment [12] the target is T2, secreted, soluble furin. The experiment in a line: cell-based or functional assay.

B1: R4R1-eglin (designed binder)
chain: SMGSELKSFPEVVGKTVDQAREYFTLHYPQYDVYFLPEGSRVTRDLRYNRVRVFYNPGTNVVNHVPHVG
notes: N-terminal Met removed; also called Tyr49-R4R1-; D33Y49
As for B1, the inhibition constant Ki was determined as 0.91 nM with secreted, soluble Kex2 [1]; 2.5 nM with secreted, soluble furin [2]; 1.3 nM with human PC7 [4]; 0.91 nM in the experiment with secreted, soluble Kex2 [5]; 2.5 nM with secreted, soluble furin [6]. Also, the “furin binding capacity of the resin relative to the M4R1-eglin Resin” value with secreted, soluble furin [3] was 10 fold. Further, the Ka came out at 8.4e+09 M⁻¹ with trypsin; 7.7e+08 M⁻¹ in the experiment with human PC7 [7]; 1.1e+09 M⁻¹ with secreted, soluble Kex2 [8]; 4e+08 M⁻¹ in the experiment with secreted, soluble furin [9]. Moreover, the “% inhibition of enzyme in rapid protease inhibition assay” value was 70% with human PC7 [10]; 60% in the experiment with secreted, soluble Kex2 [11]; 60% with secreted, soluble furin [12].
